Results reported in IntAct's records for PubMed 7486703.

B1: Proto-oncogene tyrosine-protein kinase LCK (Mus musculus), P06240 (parent)
chain: MGCVCSSNPEDDWMENIDVCENCHYPIVPLDSKISLPIRNGSEVRDPLVTYEGSLPPASPLQDNLVIALHSYEPSHDGDLGFEKGEQLRILEQSGEWWKAQSLTTGQEGFIPFNFVAKANSLEPEPWFFKNLSRKDAERQLLAPGNTHGSFLIRESESTAGSFSLSVRDFDQNQGEVVKHYKIRNLDNGGFYISPRITFPGLHDLVRHYTNASDGLCTKLSRPCQTQKPQKPWWEDEWEVPRETLKLVERLGAGQFGEVWMGYYNGHTKVAVKSLKQGSMSPDAFLAEANLMKQLQHPRLVRLYAVVTQEPIYIITEYMENGSLVDFLKTPSGIKLNVNKLLDMAAQIAEGMAFIEEQNYIHRDLRAANILVSDTLSCKIADFGLARLIEDNEYTAREGAKFPIKWTAPEAINYGTFTIKSDVWSFGILLTEIVTHGRIPYPGMTNPEVIQNLERGYRMVRPDNCPEELYHLMMLCWKERPEDRPTFDYLRSVLDDFFTATEGQYQPQP

Variants of: B1
Settings: with cd4_mouse Cd4, P06332
Chain of cd4_mouse Cd4, P06332 (P06332 whole entry): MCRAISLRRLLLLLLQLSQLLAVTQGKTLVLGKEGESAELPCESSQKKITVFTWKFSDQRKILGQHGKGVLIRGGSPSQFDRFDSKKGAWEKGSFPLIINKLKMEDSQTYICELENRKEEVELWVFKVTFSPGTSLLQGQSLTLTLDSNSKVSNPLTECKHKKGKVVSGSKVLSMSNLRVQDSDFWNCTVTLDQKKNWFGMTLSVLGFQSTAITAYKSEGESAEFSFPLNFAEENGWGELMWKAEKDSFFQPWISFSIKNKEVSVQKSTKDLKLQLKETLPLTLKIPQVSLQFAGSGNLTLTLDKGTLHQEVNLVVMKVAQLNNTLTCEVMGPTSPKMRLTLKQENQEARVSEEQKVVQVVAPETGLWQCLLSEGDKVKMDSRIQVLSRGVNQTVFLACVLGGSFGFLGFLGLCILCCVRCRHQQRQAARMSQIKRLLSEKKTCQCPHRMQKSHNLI

| effect of a mutation on the interaction | Variant |
| --- | --- |
| decreasing interaction | C20A |
